Biological target: HLA-A*02:01 (Homo sapiens, UniProt P04439, D140Y/D185E/D98H/E176V/E277Q/G131W/G231S/I119V/I121R/I166T/I218V/L300P/L318F/N151K/N90K/P208A/P217A/Q86G/Q94H/R138H/R169H/T345S)
Test: MHC binding assay (UV-ligand exchange, ELISA, peptide exchange yield)
Settings: binding of HLA-class I restricted peptides to HLA-A*02:01
Summary of the method: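 Peptide–HLA-A*02:01 complexes made by UV-ligand exchange of a UV-cleavable peptide for the test peptide. Exchange yield measured by ELISA: 100-fold diluted monomers captured on streptavidin, 1 h at 37° C., detected with HRP anti-β2m and TMB, absorbance at 450 nm.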

| Peptide exchange (MHC class I binding score, peptide exchange yield) | Substance |
| --- | --- |
| ″+++″ (≥50% = +++) | 171 (LLLPLQILL; listed as Homo sapiens) [compound 171] |
| ″++″ (≥20% = ++) | 176 (YLMEGSYNKVFL; listed as Homo sapiens) [compound 176] |
| ″+++″ (≥50% = +++) | 181 (LLWAGTAFQV; listed as Homo sapiens) [compound 181] |
| ″++″ (≥20% = ++) | 185 (FLIDDKGYTL; listed as Homo sapiens) [compound 185] |
| ″++++″ (≥75% = ++++) | 196 (YLYSVEIKL; listed as Homo sapiens) [compound 196] |
| ″+++″ (≥50% = +++) | 200 (LLFGSVQEV; listed as Homo sapiens) [compound 200] |
| ″+++″ (≥50% = +++) | 202 (ALLDQQGSRWTL; listed as Homo sapiens) [compound 202] |
| ″++″ (≥20% = ++) | 207 (GLTSTNAEV; listed as Homo sapiens) [compound 207] |
| ″++″ (≥20% = ++) | 209 (KLIESKHEV; listed as Homo sapiens) [compound 209] |
| ″++″ (≥20% = ++) | 211 (LLWPGAALL; listed as Homo sapiens) [compound 211] |
| ″+++″ (≥50% = +++) | 215 (QLINHLHAV; listed as Homo sapiens) [compound 215] |
| ″+++″ (≥50% = +++) | 216 (NLWEDPYYL; listed as Homo sapiens) [compound 216] |
| ″++″ (≥20% = ++) | 217 (ALIHPVSTV; listed as Homo sapiens) [compound 217] |
| ″+++″ (≥50% = +++) | 219 (KLSDIGITV; listed as Homo sapiens) [compound 219] |
| ″+++″ (≥50% = +++) | 224 (TLIDAQWVL; listed as Homo sapiens) [compound 224] |
| ″++″ (≥20% = ++) | 226 (MLYVVPIYL; listed as Homo sapiens) [compound 226] |
| ″++″ (≥20% = ++) | 234 (ALMEDTGRQML; listed as Homo sapiens) [compound 234] |
| ″++++″ (≥75% = ++++) | 235 (YLNDLHEVLL; listed as Homo sapiens) [compound 235] |
| ″+++″ (≥50% = +++) | 236 (GLLEAKVSL; listed as Homo sapiens) [compound 236] |
| ″++++″ (≥75% = ++++) | 237 (ALLEASGTLLL; listed as Homo sapiens) [compound 237] |
| ″+++″ (≥50% = +++) | 239 (AAFAGKLLSV; listed as Homo sapiens) [compound 239] |

Further lines, the substance ahead of its results:

| Substance | Peptide exchange (MHC class I binding score, peptide exchange yield) |
| --- | --- |
| 172 (VLYSYTIITV; listed as Homo sapiens) [compound 172] | ″++″ (≥20% = ++) |
| 173 (LLDSASAGLYL; listed as Homo sapiens) [compound 173] | ″+++″ (≥50% = +++) |
| 174 (ALAQYLITA; listed as Homo sapiens) [compound 174] | ″+++″ (≥50% = +++) |
| 175 (YLFENISQL; listed as Homo sapiens) [compound 175] | ″+++″ (≥50% = +++) |
| 177 (YLLPEEYTSTL; listed as Homo sapiens) [compound 177] | ″++++″ (≥75% = ++++) |
| 178 (ALTEIAFVV; listed as Homo sapiens) [compound 178] | ″++++″ (≥75% = ++++) |
| 179 (KVLNELYTV; listed as Homo sapiens) [compound 179] | ″+++″ (≥50% = +++) |
| 180 (FQIDPHSGLVTV; listed as Homo sapiens) [compound 180] | ″++″ (≥20% = ++) |
| 182 (MLLEAPGIFL; listed as Homo sapiens) [compound 182] | ″+++″ (≥50% = +++) |
| 183 (FGLDLVTEL; listed as Homo sapiens) [compound 183] | ″+++″ (≥50% = +++) |
| 184 (YLMDINGKMWL; listed as Homo sapiens) [compound 184] | ″+++″ (≥50% = +++) |
| 186 (TLFFQQNAL; listed as Homo sapiens) [compound 186] | ″++″ (≥20% = ++) |
| 187 (RQISIRGIVGV; listed as Homo sapiens) [compound 187] | ″+++″ (≥50% = +++) |
| 188 (GLFPVTPEAV; listed as Homo sapiens) [compound 188] | ″+++″ (≥50% = +++) |
| 189 (ALQRKLPYV; listed as Homo sapiens) [compound 189] | ″+++″ (≥50% = +++) |
| 190 (FLSSLTETI; listed as Homo sapiens) [compound 190] | ″+++″ (≥50% = +++) |
| 191 (LLQEGQALEYV; listed as Homo sapiens) [compound 191] | ″++″ (≥20% = ++) |
| 192 (KMLDGASFTL; listed as Homo sapiens) [compound 192] | ″+++″ (≥50% = +++) |
| 193 (QLLDADGFLNV; listed as Homo sapiens) [compound 193] | ″+++″ (≥50% = +++) |
| 194 (ALPLFVITV; listed as Homo sapiens) [compound 194] | ″+++″ (≥50% = +++) |
| 195 (GLFADLLPRL; listed as Homo sapiens) [compound 195] | ″+++″ (≥50% = +++) |
| 197 (ALGPEGGRV; listed as Homo sapiens) [compound 197] | ″++″ (≥20% = ++) |
| 198 (KTINKVPTV; listed as Homo sapiens) [compound 198] | ″+++″ (≥50% = +++) |

| Substance | Peptide exchange (MHC class I binding score, peptide exchange yield) |
| --- | --- |
| 201 (RLVDYLEGI; listed as Homo sapiens) [compound 201] | ″+++″ (≥50% = +++) |
| 204 (KIAENVEEV; listed as Homo sapiens) [compound 204] | ″++″ (≥20% = ++) |
| 205 (SLYPGTETMGL; listed as Homo sapiens) [compound 205] | ″+++″ (≥50% = +++) |
| 206 (VLQEGKLQKLAQL; listed as Homo sapiens) [compound 206] | ″+++″ (≥50% = +++) |
| 208 (KISPVTFSV; listed as Homo sapiens) [compound 208] | ″+++″ (≥50% = +++) |
| 210 (LLLNAVLTV; listed as Homo sapiens) [compound 210] | ″++″ (≥20% = ++) |
| 212 (ALWDQDNLSV; listed as Homo sapiens) [compound 212] | ″++″ (≥20% = ++) |
| 214 (FLLDLDPLLL; listed as Homo sapiens) [compound 214] | ″+++″ (≥50% = +++) |
| 218 (SALEELVNV; listed as Homo sapiens) [compound 218] | ″++″ (≥20% = ++) |
| 220 (LLQKFVPEI; listed as Homo sapiens) [compound 220] | ″++″ (≥20% = ++) |
| 221 (ALYEEGLLL; listed as Homo sapiens) [compound 221] | ″++″ (≥20% = ++) |
| 222 (NLIENVQRL; listed as Homo sapiens) [compound 222] | ″++″ (≥20% = ++) |
| 223 (ALLENIALYL; listed as Homo sapiens) [compound 223] | ″+++″ (≥50% = +++) |
| 225 (SLLKVLPAL; listed as Homo sapiens) [compound 225] | ″+++″ (≥50% = +++) |
| 227 (ALMNTLLYL; listed as Homo sapiens) [compound 227] | ″++″ (≥20% = ++) |
| 228 (AMQEYIAVV; listed as Homo sapiens) [compound 228] | ″++″ (≥20% = ++) |
| 229 (RLPGPLGTV; listed as Homo sapiens) [compound 229] | ″++″ (≥20% = ++) |
| 230 (ILVDWLVEV; listed as Homo sapiens) [compound 230] | ″+″ (≥10% = +) |
| 231 (FLSPQQPPLLL; listed as Homo sapiens) [compound 231] | ″++″ (≥20% = ++) |
| 232 (ALLEAQDVELYL; listed as Homo sapiens) [compound 232] | ″++″ (≥20% = ++) |
| 233 (VLSETLYEL; listed as Homo sapiens) [compound 233] | ″++″ (≥20% = ++) |
| 238 (YLISFQTHI; listed as Homo sapiens) [compound 238] | ″+++″ (≥50% = +++) |

Source: US10227388B2, “Peptides and combination of peptides for use in immunotherapy against non-small cell lung cancer and other cancers” (immatics biotechnologies GmbH, priority 2015, dated 2019)
